We go through 2 molecules from patent publication US11702465 (TRIAD NATIONAL SECURITY, dated 2023).

The Kd is the concentration at which binding is half-saturated. A high value points to weaker binding.

The assay concerns the target T1, Yersinia pestis F1 antigen, cell-expressed (on Y. pestis cells) (Yersinia pestis, UniProt P26948 22-170).
T1 construct: whole, on cells; also called cell-expressed F1 antigen; F1-positive Y. pestis
The assay is described as follows: affinity for cell-expressed F1 antigen (method not given).

T1 sequence (P26948 22-170): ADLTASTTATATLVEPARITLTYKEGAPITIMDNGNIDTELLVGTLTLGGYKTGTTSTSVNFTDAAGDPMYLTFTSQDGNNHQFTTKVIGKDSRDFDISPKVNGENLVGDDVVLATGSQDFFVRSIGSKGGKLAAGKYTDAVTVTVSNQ

B1: AM IgG B (antibody, V domains shown)
VH: QVQLVESGGGLVKPGGSLRLSCAASGFTFSDYYMSWIRQAPGKGLEWVSYISGSGSIIYYADSVKGRFTISRDNAKNSLYLQMNSLRAEDTAVYYCAKEIRKHDAFDIWGQGTMVTVSS
VL: DIRMTQSPSSLSASVGDRVTITCRASRSISGYLNWYQQKPGKAPKLLIYATSSLQSGVPSRFSGSGSGTDFTLTISSLQPEDFATYYCQQSYSTPSSFGQGTKVDIKR
notes: also called AM^a IgG B
In the case of B1, the Kd is 90 pM.

B2: AM IgG H (antibody, V domains shown)
VH: QVQLQQWGAGLLKPSETLSLTCAVYGGSFSGYYWSWIRQPPGKGLEWIGEINRSGNTNYNPSLKSRVTISVDTSKNQFSLQLNSVTPEDTAVYYCARTRGYFDLWGRGTLVTVSS
VL: QPVLTQSPSVSVSPGQTASITCSGDKLGGRYASWYQQKPGQSPVLVIYQDTKRPSGIPERFSGSNSGNTATLTISGTQAMDEADYYCQSWDSSAAVFGTGTKLTVLG
notes: also called AM^a IgG H
On to B2, for which binding was characterised by a dissociation constant (Kd) of 30 pM.
